# B1: IkB-like protein (African swine fever virus (isolate Tick/Malawi/Lil 20-1/1983)), O36972 (parent)
# chain: MDTIGLFSVEAEHLFVEWVKKCIKKGDLTLFETLFNADPWIVNRCNKNKITVFMLICIYGRLDFLRFLFKQESYPGEIVNHYRRDKDGNSAWHYLAEKNNHLLLEEVLDYFGKNGIRVCFPNFNGVTPIMKAAMRGRTLSVLSLLKYGANPNRKDYLKGFTTWDWAVFTGHADLVKTLNKGYQKPLFMHFPLYKLDVFHRRFKKKPKIIITGCEDNVYEKLPEQNSNFLCVKKLNKYGK
# Variants of: B1
# Conditions: with PPP3CA
row,Variant,effect of a mutation on the interaction
1,F228A;L229A;V231A;K232A,disrupting interaction strength

# Reference: IntAct's records for PubMed 23468591
